The supplement of paper PMC12042874
± gives the uncertainty stated by the source.

Experiment: amyloid nucleation score (Sup35N fusion, yeast selection) (log enrichment); library NNK1; higher = more nucleation; inactive = no reads after selection
In short: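 Sup35N was fused to peptides of 20 random codons and expressed in psi-negative yeast, which were induced with 100 μM copper sulfate for 24 hours and then grown on medium lacking adenine and uracil for 7 days at 30°C. Plasmid inserts from input and output were sequenced on Illumina. The nucleation score is the DiMSum log enrichment of output over input reads, centred on the mode score of non-aggregating sequences. Sequences with under 100 input reads were left out, and random libraries had three technical output replicates.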

Row | Substance | amyloid nucleation score
1 | LVRTIVLNKRIMWMIQLCFK | 0.86 ± 0.63
2 | DKEMECIYEYAL | 0.523 ± 0.55
3 | FYYGSLPYCVTKRFRDFGNQ | 3.02 ± 0.18
4 | KVFISCYLWYA | 3.8 ± 0.072
5 | GAKYMNMRIRRTSFGSAYQS | 0.335 ± 0.48
6 | LSHWHGCCKSHRYIQF | 0.244 ± 0.3
7 | ATRRSCNLCLNLEFT | inactive
8 | KIGWL | -0.555 ± 0.58
9 | YVTIIDKIYIWLDVVNRDLP | 2.55 ± 0.29
10 | VLKHFGFCMLPNISAY | 0.386 ± 0.4
11 | GFLTETDNCTICIFHMFVDN | 6.201 ± 0.059
12 | RYEMSVHGV | 0.391 ± 0.66
13 | DYMDSCGYVDSATRYKVSEM | -0.241 ± 1.1
14 | RSLPNPL | -0.29 ± 0.42
15 | HFAPLFDYNLTGIKTLKTAD | 0.1 ± 0.77
16 | GVGWISKPNHLDTFITTS | 0.738 ± 0.35
17 | FWSMIGLWILDC | 0.031 ± 0.25
18 | RCSNLGFKFWR | -0.332 ± 0.39
19 | RSVPCPYYGLL | 0.033 ± 0.66
20 | SGINLLFVFS | 2.95 ± 0.25
21 | NVSVVSSHMLICMGMATRNP | 1.92 ± 0.36
22 | WHILPQVWGIVHMIRSNLVC | 0.99 ± 0.64
23 | SVMAGSYITPVRMRKKKLFV | inactive
24 | RWMELMALSRKTPGRQKARC | -0.745 ± 1.5
25 | LWGFSISYRKFVVSYGKAP | 0.279 ± 0.31
26 | RGFQTKSKGLARRSMYKCWE | -0.275 ± 0.31

Row | Substance | amyloid nucleation score
27 | MEIRYYFVFEEDGRVFEGGT | 0.025 ± 0.43
28 | HRSTVAKSTRKLPGICSVFW | 0.845 ± 0.8
29 | KEGRPQSTLCNVVRGFREQY | -0.565 ± 0.7
30 | VLFLHSS | 0.355 ± 0.49
31 | NVWLWDTKFILQTRIPS | -0.026 ± 1.7
32 | RLEADYLTVIESVGHSATGS | inactive
33 | CSNVGVCGMSIH | 5.01 ± 0.052
34 | GRTFVHSLWACNNSYCSL | 6.85 ± 0.088
35 | PLRDGA | -0.856 ± 2.4
36 | HKCWVDGIVY | 0.577 ± 0.48
37 | DRGMMCALVFYRHL | 0.691 ± 0.56
38 | YTPMTTSWLLPSLEINI | -0.069 ± 0.71
39 | KTFTNGLCDPDVYGTIWAM | 0.488 ± 0.36
40 | RKRPTGTHAVDVSRGFT | 1.27 ± 0.71
41 | HRLRLSVVRAIYDTQIHQRA | -0.043 ± 0.34
42 | VWRADMCSHS | -0.17 ± 0.53
43 | DYSSSFVNCIYKKPGQGMFG | 0.133 ± 0.54
44 | SYVVETQFSSHFSVLWDLMF | -1.49 ± 1.2
45 | NEPHWSLLRF | -0.535 ± 0.65
46 | TDGTLIGSY | 0.128 ± 0.44
47 | CWAKEFFNNESIRG | 0.077 ± 0.49
48 | NGWNYM | -0.349 ± 1
49 | KPLCLNYKCLYIILVCVGDP | 0.151 ± 0.27
50 | MPIEYG | -0.27 ± 0.71
51 | EQAGVRVTDYVAVELLFWRF | 0.826 ± 0.39
52 | DHGFLGE | -0.172 ± 0.76

Row | Substance | amyloid nucleation score
53 | SSSVYVVVEPDMNGLMGMRK | 0.08 ± 0.61
54 | FVSLNTIFRAYPQIHYRLVR | inactive
55 | QNHSGPGLMIRILANAQKWF | -0.93 ± 2.4
56 | HVLLYCANFVIYTDVA | 2.45 ± 0.26
57 | SCGTYFLFICHKSLYWHVHI | -0.594 ± 0.9
58 | SPPSLRNLNYIFAY | -0.948 ± 2.4
59 | YILVNMMGVWVVKVTHKVN | inactive
60 | VSWHHLVLLKGRLLEVSLSS | -0.158 ± 0.28
61 | YKTEHNRSIDLLGISSSSFL | -0.322 ± 1
62 | YRWLLNRKTSSMSVFCNSLF | inactive
63 | EELTAYMSLDMQLCRNRAAM | 0.055 ± 0.55
64 | GRVFAVSYFVRAGLVNEG | 0.082 ± 0.7
65 | VREYMTFQDMYLSGVSTVTL | 1.08 ± 0.61
66 | VIMFSFIS | 5.04 ± 0.062
67 | DSGVAVQMFEQTTGDPGIEG | -0.883 ± 0.76
68 | RLVNPRDCKFNDTRTFCSRR | 0.118 ± 0.52
69 | MFRSRGLMAQRYNFGTQLSY | inactive
70 | VSRVTASYRFIFNYYEMDTS | inactive
71 | MPIVKLTWLYTGVGAKPQVS | 0.211 ± 0.26
72 | RSSWKVLKRFRVVRERHEIT | 0.257 ± 1.1
73 | FFCSNDLSFVAELILINRQV | 0.87 ± 0.58
74 | WNPYPTCSYSPFATSGDSAF | -1.13 ± 0.76
75 | NTCYALIMVLYRRDRGPANM | 1.55 ± 0.17
76 | HIKASDFIW | -0.333 ± 0.31
77 | ILHLLRFNDIAFVKRLSAVL | -0.067 ± 0.17
78 | YNFERDYLSVYHFAWLIP | 0.372 ± 0.54

Row | Substance | amyloid nucleation score
79 | RGRRDAGGYRSKSFLGAWGV | 0.837 ± 0.21
80 | PSWSPKAIKFQHVLYFVKFL | 0.236 ± 0.59
81 | HCIPLALICGGSSSPVVEYL | 0.686 ± 0.43
82 | ISCGCMRVLTRDNLFLKFRF | 0.12 ± 0.58
83 | NNAGYRYALRKISSHLLRPV | -0.092 ± 0.44
84 | VGNMYYGSTSHNDT | -1.48 ± 1.7
85 | RSVSLNRSTRRRR | 1.1 ± 0.41
86 | CPASKFDQGP | -0.038 ± 0.81
87 | NKMIKWASQDGCRKVRFSEE | -0.427 ± 0.4
88 | LNRGYAGFSLN | -1.86 ± 1.1
89 | ITMYANMNSGQFTMLESMPD | -0.303 ± 0.26
90 | RTSPSYGIPNWAELLRVE | -0.311 ± 0.69
91 | DCGRWNRKRPNSVLGVYL | 1.48 ± 0.88
92 | SPFSGVL | 0.589 ± 0.25
93 | FFWYPTFISFDRKFEVTIGP | 5.07 ± 0.053
94 | QHLRFSFVPE | 0.312 ± 0.46
95 | NTYWVSSAS | 0.078 ± 0.64
96 | NKCKKYGYLFRLSGYEGHNL | 5.54 ± 0.091
97 | LMQSCWSFHYNRLASLLRHT | -0.316 ± 0.88
98 | NNNESEWMRGFSLKEGPTQE | 0.111 ± 0.84
99 | IVVGRGKQAIASMG | -0.432 ± 0.89
100 | NVMCAGYIIMGATMYKKWVM | 0.902 ± 0.29
101 | DHVDYSILNYSPMFDCVKFC | 0.028 ± 0.27
102 | RRCSEM | 0.853 ± 0.4
103 | TLCIVNIGSFVEDEKGDN | 7.19 ± 0.073
104 | MNENCGFVKFVRSKKRFKDV | -0.287 ± 0.39

Row | Substance | amyloid nucleation score
105 | MDSYLSSNCKCDTLDVGGNE | -1.17 ± 1.6
106 | DLYQCVHPMFHVWVCVTAGW | inactive
107 | ATLGDSEEYRLAFGLPLYCR | inactive
108 | LYYRKLVCWESGMA | 0.318 ± 0.66
109 | WLISFGDFDGSMFKMMSNTK | 2.67 ± 0.13
110 | LKELYG | 0.303 ± 0.65
111 | GYAFVY | -0.037 ± 0.52
112 | TCRVEMPSCCCFSGIVGCDR | 3.53 ± 0.067
113 | MNRVDLCVNA | 0.438 ± 0.38
114 | WFTPNVWAGGVWHHVLGFGG | -0.93 ± 0.65
115 | FCPTVETYNVW | 2.12 ± 0.14
116 | IWLSLYIAFYGCLHGWFPSQ | 0.645 ± 0.6
117 | DTAFMNMMLWARNYCWFSVQ | inactive
118 | AHRPGMFFRNYVVGDLS | -0.026 ± 0.48
119 | ILMFWSPVGSRLTLSTSKLQ | -0.234 ± 1.6
120 | VGSPGCMGLVTLNHVP | 0.522 ± 0.24
121 | EKRRNNTSNRSWSGSYFLDT | 0.111 ± 0.28
122 | IFAVHMLYSECTGSFRYHWS | 0.055 ± 0.79
123 | FQHTLGRKA | 0.438 ± 0.68
124 | AVWSRRTCWGLRKQSGVVLT | 0.036 ± 0.32
125 | SCGSVFF | -0.758 ± 2.1
126 | CEGMVIMVGRVLRTSYLYNL | 0.001 ± 0.61
127 | LMEIFLNLPPANKNSYNRR | -0.766 ± 2.4
